Measurements from article PMC6458997, “Deciphering the Molecular Mechanism Underpinning Phage Arbitrium Communication Systems” (Molecular Cell, 2019).
Changes are numbered by the printed parent chain. In names and notes the source's numbering stands. Entries after “also recorded” stand apart in the source; their conditions may differ.

B1: SPbeta AimR: full-length AimR (residues 1-386) from the SPbeta phage, transcription factor and arbitrium receptor (protein)
chain: MELIRIAMKKDLENDNSLMNKWATVAGLKNPNPLYDFLNHDGKTFNEFSSIVNIVKSQYPDREYELMKDYCLNLDVKTKAARSALEYADANMFFEIEDVLIDSMISCSNMKSKEYGKVYKIHRELSNSVITEFEAVKRLGKLNIKTPEMNSFSRLLLLYHYLSTGNFSPMAQLIKQIDLSEISENMYIRNTYQTRVHVLMSNIKLNENSLEECREYSKKALESTNILRFQVFSYLTIGNSLLFSNYELAQENFLKGLSISVQNENYNMIFQQALCFLNNVWRKENKWINFESDSIMDLQEQAHCFINFNENSKAKEVLDKLDLLVHNDNELAMHYYLKGRLEQNKACFYSSIEYFKKSNDKFLIRLPLLELQKMGENQKLLELLLL
modifications: left off: His6, N-terminal, cleaved
notes: full-length AimR (residues 1-386) from the SPbeta phage, transcription factor and arbitrium receptor
B2: AimR^D360A: SPbeta AimR residue D360 mutated to Ala (protein)
chain: B1 chain with D360A
B3: AimR^N202A: SPbeta AimR residue N202 mutated to Ala (protein)
chain: B1 chain with N202A
B4: AimR^ΔC-ter: AimR mutant lacking the TPR^C-ter subdomain, stop codon at position 294 (protein)
chain: MELIRIAMKKDLENDNSLMNKWATVAGLKNPNPLYDFLNHDGKTFNEFSSIVNIVKSQYPDREYELMKDYCLNLDVKTKAARSALEYADANMFFEIEDVLIDSMISCSNMKSKEYGKVYKIHRELSNSVITEFEAVKRLGKLNIKTPEMNSFSRLLLLYHYLSTGNFSPMAQLIKQIDLSEISENMYIRNTYQTRVHVLMSNIKLNENSLEECREYSKKALESTNILRFQVFSYLTIGNSLLFSNYELAQENFLKGLSISVQNENYNMIFQQALCFLNNVWRKENKWINFESD

Columns and labels:
SPbeta AimR operator = conditions: pH 7.5
Experimental: AimR binding to its operator and the inhibition induced by the arbitrium peptides were analyzed by native polyacrylamide and agarose gel electrophoresis. […] Double strand DNA primer probes were purchased from Macrogen (Table S1 and Figure 3A). Purified PCR product or purchased probes (0.4μM) and AimR (4μM) protein were mixed in EMSA buffer (50 mM HEPES pH 7.5, 5 mM MgCl2, 75 mM NaCl and 0.5 mM EDTA). The samples were incubated for 10 min at room temperature. 8% polyacrylamide gels were electrophoresed in Tris-Borate-EDTA (TBE) buffer at 100V for one hour, followed by loading of the samples. Electrophoresis was then performed in TBE buffer at 4°C for about 150 min at 100V. Agarose gels (0.8%–1.2%) were run in TAE buffer at room temperature for about 100 min at 80V. Gels were stained with RedSafe (Intron Biotechnology).

[1] = system: putative AimR operators found in SPbeta genome; assay: EMSA, AimR binding to other SPbeta operators with longer spacers; design: species or system Bacillus subtilis SPbeta phage; conditions: spacers of 27 and 28 bp
Text: (§1) Gels were stained with RedSafe (Intron Biotechnology).

[2] = system: intergenic region between yopL and yopM; assay: Nuclease protection assay (footprinting); assay type: binding, Bacillus subtilis SPbeta phage; conditions: 0.3 μM AimR SPbeta, 10 min room temperature; DNase I 10^−4 mg/mL, 1 min at 37°C; capillary electrophoresis
[3] = SEC-MALS, oligomeric state of AimR proteins; assay type: physicochemical; conditions: 5 mg/mL, Superdex 200 HR 10/300, 25 mM Tris pH 8, 250 mM NaCl
Experimental: SEC-MALS experiments were performed using an AKTA pure system (GE Heralthcare) coupled to a Wyatt DAWN HELEOS-II MALS instrument and a Wyatt Optilab rEX differential refractometer (Wyatt). 50 μL of the protein samples were injected at a concentration of 5 mg/mL on a Superdex 200 HR 10/300 (GE Heralthcare) column equilibrated in 25 mM Tris pH 8, 250 mM NaCl. When the effect of the peptide in the oligomeric state was tested, 1 mM peptide was added to the injected sample and the running buffer was supplemented with peptide at a final concentration of 1 μM. The Astra 7.1.2 software from the manufacturer was used for acquisition and analysis of the data.

[4] = system: spacer-length-variant operators; assay: EMSA and titration, AimR binding to spacer-length-variant operators; design: species or system Bacillus subtilis SPbeta phage; conditions: apo AimR; spacers 12 to 35 bp; titration with 0.125 to 1 μg AimR
Text: as §1

SPbeta AimR D360A = assay: Thermal shift assay, mutant AimR D360A; assay type: binding, Bacillus subtilis SPbeta phage; conditions: AimR^D360A versus WT AimR
Experimental: The thermal shift assay was conducted in a 7500 Fast Real time PCR System (Applied Biosystems). Samples of 20 μL containing 5 × Sypro Orange (Sigma-Aldrich) and 20 μM of protein in a 20 mM Tris pH 8 and 250 mM NaCl buffer were loaded in 96-well PCR plates. To calculate the apparent Kd peptide concentrations from 0 to 2 μM were added to the mixture. Samples were heated from 20 to 85°C in steps of one degree. Fluorescent intensity was plotted versus temperature and integrated with GraphPad Prism software using a Boltzmann model to calculate melting temperatures.

[5] = Size-exclusion chromatography of AimR^ΔC-ter; assay type: physicochemical; conditions: stop codon at position 294

Molecule | binding to SPbeta operator or 359 bp fragment (SPbeta AimR operator) | binding to other SPbeta operators [1] | length of sequence protected from DNase I degradation [2] [nt] | oligomeric state in solution [3] | affinity / capacity to bind spacer-length-variant operators [4] | decrease in the melting temperature with respect to the WT AimR (SPbeta AimR D360A) [°C] | oligomeric state in solution (size-exclusion chromatography) [5]
B1 | binds to a 359 bp fragment | AimR binding to other SPbeta operators with longer spacers | 37 | dimeric organization | after eliminating 2 bp AimR dramatically loses its capacity to bind the operator; also recorded: can recognize operators in which the spacer has been increased even more than 6 bp |  | 
B2 |  |  |  | dimeric in solution |  | 5.3 | 
B3 | able to bind DNA |  |  | dimeric in solution |  |  | 
B4 |  |  |  |  |  |  | monomeric in solution
